Experimental data published in patent US20250011869A1, “TLR3 INHIBITORS FOR USE IN THE TREATMENT OF DISEASES ASSOCIATED WITH CARDIOVASCULAR CALCIFICATION” (priority 2021, published 2025).
Entries after “also recorded” stand apart in the source; their conditions may differ.

Columns and labels:
[1] = target: TLR3 (Homo sapiens, UniProt O15455); assay: HEK293 hTLR3 reporter cell assay (TLR3/ISRE LUCPorter, luminometer); format: cell-based; conditions: putative ligands at increasing concentrations, 24 h (biglycan 5, 10, 20 μg/ml)
Protocol: All cells were cultivated under standard conditions (37° C., supplied with 5% CO2). Passaging of the cells was performed at 70-90% confluency, and cells were only used until passage 7 as described previously^6. Polyinosinic: polycytidylic acid (Poly(I:C); Invivogen, San Diego, CA) was used to stimulate cells at a concentration of either 20 μg/mL or 5 μg/ml, depending on the assay. For blockade of TLR3, the commercially available dsRNA/TLR3 inhibitor ((R)-2-(3-Chloro-6-fluorobenzo [b] thiophene-2-carboxamido)-3-phenyl-propanoic acid) was used (Merck, Darmstadt, Germany) at a concentration of 1 μg/ml as described previously^1,7. LY294002 (Invivogen, San Diego, CA), a PI3K inhibitor, was used at a concentration of 10 μM. For blockade of IFNAR1, a specific blocking antibody (Invitrogen, Carlsbad, CA) was used at a concentration of 4 μg/ml. A stable HEK (human embryonic kidney) reporter cell line (TLR3/ISRE LUCPorter; Imgenex, USA) was purchased for luminometer assay experiments. Cells were cultivated according to the manufacturer's protocol in DMEM with 4.5 g/L glucose (Lonza, Switzerland), 10% FCS (Sigma, St. Louis, MO), penicillin/streptomycin, and 4 mM L-glutamine and […] puromycin (Gibco, USA) as selection agent. Reporter experiments were performed as described previously^8. […]

[2] = tested on: TLR3; assay: TLR3 expression in valvular interstitial cells (immunoblot / RT-qPCR); format: cell-based, human; conditions: immunoblot; 20 μg/ml, 24 h or 48 h (FIG. 7A)
Protocol: Valvular interstitial cells from patients undergoing aortic valve replacement or cardiac transplantation were isolated via collagen digestion as described previously^6. Valves were rinsed in EBSS and subsequently subjected to collagenase digestion (Sigma, St. Louis, MO; 2.5 mg/mL in M199) for 30 minutes at 37° C. Thereafter, tissue samples were vortexed and supernatant containing endothelial cells was removed. Again, collagenase was added to the remaining valve tissue (1 mg/mL) for 3 h at 37° C. For mechanical disintegration of the tissue, vortexing and repeated aspiration via a pipette was performed. The supernatant was transferred into a new tube and subjected to centrifugation (300 g for 8 minutes at 4° C.). Subsequently, cells were resuspended in M199 medium containing 10% fetal calve serum, penicillin, streptomycin, L-Glutamine and amphotericin B (2.5 mg/L).
All cells were cultivated under standard conditions (37° C., supplied with 5% CO2). Passaging of the cells was performed at 70-90% confluency, and cells were only used until passage 7 as described previously^6. […]
RT-PCR was performed as described previously^17. […] The result for the relative gene expression was calculated by the 2-DDCt method. Mean Ct values were calculated from double determinations and samples were considered negative if the Ct values exceeded 4017. […]

[3] = tested on: TLR3 and IFN-β; assay: RT-PCR of human dermal fibroblasts (wild type, empty vector control, Tlr3−/− CRISPR); format: cell-based; conditions: 5 μg/ml, 6 h
Source text: (§1) Human dermal fibroblasts WT and Tlr3^−/− were kindly provided by the Jean-Laurent Casanova group and cultivated in DMEM with 4.5 g/L glucose (Lonza, Basel, Switzerland), 10% FCS (Sigma, St. Louis, MO), penicillin, streptomycin and L-Glutamine. Human dermal fibroblasts CTR cells were provided by the Villunger group and cultivated in DMEM with 4.5 g/L glucose (Lonza, Basel, Switzerland), 10% FCS (Sigma, St. Louis, MO), penicillin, streptomycin and L-Glutamine.
(§2) All cells were cultivated under standard conditions (37° C., supplied with 5% CO2). Passaging of the cells was performed at 70-90% confluency, and cells were only used until passage 7 as described previously^6. Polyinosinic: polycytidylic acid (Poly(I:C); Invivogen, San Diego, CA) was used to stimulate cells at a concentration of either 20 μg/mL or 5 μg/ml, depending on the assay. For blockade of TLR3, the commercially available dsRNA/TLR3 inhibitor ((R)-2-(3-Chloro-6-fluorobenzo [b] thiophene-2-carboxamido)-3-phenyl-propanoic acid) was used (Merck, Darmstadt, Germany) at a concentration of 1 μg/ml as described previously^1,7. LY294002 (Invivogen, San Diego, CA), a PI3K inhibitor, was used at a concentration of 10 μM. For blockade of IFNAR1, a specific blocking antibody (Invitrogen, Carlsbad, CA) was used at a concentration of 4 μg/ml. A stable HEK (human embryonic kidney) reporter cell line (TLR3/ISRE LUCPorter; Imgenex, USA) was purchased for luminometer assay experiments. Cells were cultivated according to the manufacturer's protocol in DMEM with 4.5 g/L glucose (Lonza, Switzerland), 10% FCS (Sigma, St. Louis, MO), penicillin/streptomycin, and 4 mM L-glutamine and […] puromycin (Gibco, USA) as selection agent. Reporter experiments were performed as described previously^8. For the protein expression SF21 cells were purchased at ThermoFisher (#11497013) and cultivated in Gibco™ Sf-900™ SFM supplemented with penicillin, streptomycin and L-Glutamine. In vitro stretch was applied using a Flexcell bioreactor (Flexcell International Corporation, Burlington, NC) applying 15% cyclic strain as described previously^9.
RT-PCR was performed as described previously^17. Total RNA was extracted from homogenized tissue or cell lysates using the Total RNA Miniprep Kit (New England BioLabs, Frankfurt, Germany) according to the manufacturer's instructions. We performed the PCR reaction in a final volume of 12.5 μL containing 2.5 μL of cDNA, 6.25 μL of Master Mix, 1 μL of fluorogenic hybridization probe, 10 μM of primer and 2.75 μL of distilled water. […] The result for the relative gene expression was calculated by the 2-DDCt method. Mean Ct values were calculated from double determinations and samples were considered negative if the Ct values exceeded 4017. […]

[4] = tested on: TLR3-RUNX2 pathway; assay: Immunoblot of human dermal fibroblasts for the TLR3-RUNX2 pathway; format: cell-based; conditions: wild type and empty vector control cells; 5 μg/ml, 6 h
Source text: as §1, §2
Protein from tissue or cell lysates was extracted using a Radioimmunoprecipitation Assay Lysis Puffer (150 mM NaCl, 1% NP-40, 0.5% Sodium Deoxycholate, 0.1% SDS and 50 mM Tris (pH 8,0)). For the extraction of nuclear or cytosolic proteins the NE-PER™ Nuclear and Cytoplasmic Extraction Reagents Kit (ThermoScientific, #78835) was used.
Protein was thereafter separated on SDS-polyacrylamide gels of different percentages and transferred to nitrocellulose membranes as described previously^18. After blocking with either 5% BSA in TBS 0.1% Tween, 5% milk in TBS 0.1% Tween or StartingBlock™ (TBS) Blocking buffer (ThermoScientific, #37542) membranes were incubated with primary antibodies listed in Table 2.

B1: BGN: proteoglycan biglycan (BGN), a structural protein of the extracellular matrix (ECM) (protein)
chain: DEEASGAETTSGIPDLDSLPPTYSAMCPFGCHCHLRVVQCSDLGLKAVPKEISPDTTLLDLQNNDISELRKDDFKGLQHLYALVLVNNKISKIHEKAFSPLRKLQKLYISKNHLVEIPPNLPSSLVELRIHDNRIRKVPKGVFSGLRNMNCIEMGGNPLENSGFEPGAFDGLKLNYLRISEAKLTGIPKDLPETLNELHLDHNKIQAIELEDLLRYSKLYRLGLGHNQIRMIENGSLSFLPTLRELHLDNNKLSRVPAGLPDLKLLQVVYLHTNNITKVGVNDFCPVGFGVKRAYYNGISLFNNPVPYWEVQPATFRCVTDRLAIQFGNYKK
activation of TLR3 reporter cells [1]: activated TLR3 reporter cells in a dose-dependent fashion
TLR3 expression in VICs [2]: induces TLR3 expression in a dose-dependent manner; also recorded: induced TLR3 expression in VICs
transcription of TLR3 and IFN-β ([3]; Tlr3−/− fibroblasts): no response
transcription of TLR3 and IFN-β ([3]; wild type and empty vector control fibroblasts): induced transcription of TLR3 and IFN-β
IFNAR1 level [4]: upregulation of IFNAR1
levels of osteoblastic transcription factor RUNX2 [4]: increased levels
phosphorylation of IRF3 [4]: phosphorylation of IRF3
